Experimental data reported in patent US20250179163A1 (Sanofi, published 2025).
Blank lines part the entries; values can stand above or below the molecule they belong to.

How the values were obtained:
[1] = biological target: T1, Human TGFβ1 (human, UniProt P01137 279-390); test: SPR (Biacore T200), TGFβ1 amine-coupled to CM5 chip, Fab injected
T1 construct: also called Transforming Growth Factor-β1

[2] = biological target: T1, Human TGFβ1
[3] = biological target: T1, Human TGFβ1; test: Octet QK384, Fab from conditioned medium captured on anti-Fab-CH1 biosensors, 200 nM TGFβ1; qualitative
Description: Conditioned media (CM) was harvested 4 days post-transfection and the Octet QK384 instrument was used to calculate expression level and TGFβ1 binding in a single assay. […] Binding to anti-Fab-CH1 biosensors was measured for 2 min at 1000 rpm and 30° C. plate temperature for quantitation and capture. The sensors were then moved into wells containing 200 nM of TGFβ1 for binding assessment.

T1 sequence (P01137 279-390 limits assumed): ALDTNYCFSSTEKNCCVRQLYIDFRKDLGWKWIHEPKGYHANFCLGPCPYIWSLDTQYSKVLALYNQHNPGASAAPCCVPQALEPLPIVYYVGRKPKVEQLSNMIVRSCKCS

Kd [1]: 2.9 nM
koff [1]: 0.00208 s⁻¹
kon [1]: 711000 M⁻¹ s⁻¹
Molecule: GC1008 Fab

IC50 (read off the curve) [2]: 1 ng/mL
Molecule: GC1008 control (antibody)

binding result [3]: binds
B1: CAT192 A25S Fab (Fab, V domains shown)
VH: EVQLVESGGGVVQPGRSLRLSCAASGFTFSSYGMHWVRQAPGKELEWVAVISYDGSIKYYADSVKGRFTISRDNSKNTLYLQMNSLRAEDTAVYYCARTGEYSGYDTDPQYSWGQGTTVTVSS
VL: EIVLTQSPSSLSASVGDRVTITCRSSQGIGDDLGWYQQKPGKAPILLIYGTSTLQSGVPSRFSGSGSGTDFTLTINSLQPEDFATYYCLQDSNYPLTFGGGTRLEIKR
notes: Control light chain mutant in the Fv; His-tagged HC Fab, HC limits see recheck; also called A25S mutant
